Laboratory results taken from patent US11466286B2, “Methods and compositions for conferring and/or enhancing herbicide tolerance using protoporphyrinogen oxidase or variant thereof” (FarmHannong Co., Ltd., priority 2016, dated 2022).

B1: CyPPO10 S60T + I340T + F360I: CyPPO10 (SEQ ID NO: 2) PPO variant (protein)
chain: MIEVDVAIVGGGLSGLSVAWRLQRSAPHYSGVLLEASDRLGGNITTQAAEGFVWELGPNTFAPTPALLQLIAEVGLHSELIRGDRHLPRYIYWRGELYPLEPTRPLALATSNLLSPWGKVRAALGALGFVPPYLGSGDESVDSFFRRHLGQEVAERLVAPFVSGVYAGDPQQLSAAAAFRRIAQLEKLGGSLIAGALRLRRQQPPQPKPPAQVQMRPGELGSFREGLAALPRAIAQQLKAPLHLQTPVEAITPEPKGGYLLRSGEQTWHARSVVLATPAYQTAELVAPFQPAIARALATIPYPTVACVVLAYPAGLGRSVRPGFGVLVPRGQGIRTLGTTWSSCLFPQRTPAGWQVFTSIIGGATDPDLASLREEAIVEQVQQDLTRLLDLPAAKARLLGMKVWRRAIPQYIVGYPQQWQQVTHALTQTPGLFLCSNYAEGVALGDRVEHGNRTAAAVAAYLAGGQS
modifications: Synthetic CyPPO10
B2: CyPPO10 R89L + F360I: CyPPO10 (SEQ ID NO: 2) PPO variant (protein)
chain: MIEVDVAIVGGGLSGLSVAWRLQRSAPHYSGVLLEASDRLGGNITTQAAEGFVWELGPNSFAPTPALLQLIAEVGLHSELIRGDRHLPLYIYWRGELYPLEPTRPLALATSNLLSPWGKVRAALGALGFVPPYLGSGDESVDSFFRRHLGQEVAERLVAPFVSGVYAGDPQQLSAAAAFRRIAQLEKLGGSLIAGALRLRRQQPPQPKPPAQVQMRPGELGSFREGLAALPRAIAQQLKAPLHLQTPVEAITPEPKGGYLLRSGEQTWHARSVVLATPAYQTAELVAPFQPAIARALATIPYPTVACVVLAYPAGLGRSVRPGFGVLVPRGQGIRTLGTIWSSCLFPQRTPAGWQVFTSIIGGATDPDLASLREEAIVEQVQQDLTRLLDLPAAKARLLGMKVWRRAIPQYIVGYPQQWQQVTHALTQTPGLFLCSNYAEGVALGDRVEHGNRTAAAVAAYLAGGQS
modifications: Synthetic CyPPO10
B3: CyPPO10 A167I + F360M: CyPPO10 (SEQ ID NO: 2) PPO variant (protein)
chain: MIEVDVAIVGGGLSGLSVAWRLQRSAPHYSGVLLEASDRLGGNITTQAAEGFVWELGPNSFAPTPALLQLIAEVGLHSELIRGDRHLPRYIYWRGELYPLEPTRPLALATSNLLSPWGKVRAALGALGFVPPYLGSGDESVDSFFRRHLGQEVAERLVAPFVSGVYIGDPQQLSAAAAFRRIAQLEKLGGSLIAGALRLRRQQPPQPKPPAQVQMRPGELGSFREGLAALPRAIAQQLKAPLHLQTPVEAITPEPKGGYLLRSGEQTWHARSVVLATPAYQTAELVAPFQPAIARALATIPYPTVACVVLAYPAGLGRSVRPGFGVLVPRGQGIRTLGTIWSSCLFPQRTPAGWQVFTSMIGGATDPDLASLREEAIVEQVQQDLTRLLDLPAAKARLLGMKVWRRAIPQYIVGYPQQWQQVTHALTQTPGLFLCSNYAEGVALGDRVEHGNRTAAAVAAYLAGGQS
modifications: Synthetic CyPPO10
B4: CyPPO10 R89V + F360I: CyPPO10 (SEQ ID NO: 2) PPO variant (protein)
chain: MIEVDVAIVGGGLSGLSVAWRLQRSAPHYSGVLLEASDRLGGNITTQAAEGFVWELGPNSFAPTPALLQLIAEVGLHSELIRGDRHLPVYIYWRGELYPLEPTRPLALATSNLLSPWGKVRAALGALGFVPPYLGSGDESVDSFFRRHLGQEVAERLVAPFVSGVYAGDPQQLSAAAAFRRIAQLEKLGGSLIAGALRLRRQQPPQPKPPAQVQMRPGELGSFREGLAALPRAIAQQLKAPLHLQTPVEAITPEPKGGYLLRSGEQTWHARSVVLATPAYQTAELVAPFQPAIARALATIPYPTVACVVLAYPAGLGRSVRPGFGVLVPRGQGIRTLGTIWSSCLFPQRTPAGWQVFTSIIGGATDPDLASLREEAIVEQVQQDLTRLLDLPAAKARLLGMKVWRRAIPQYIVGYPQQWQQVTHALTQTPGLFLCSNYAEGVALGDRVEHGNRTAAAVAAYLAGGQS
modifications: Synthetic CyPPO10

These molecules were tested on CyPPO10 (assay: PPO enzyme activity and IC50 by herbicides, CyPPO10 wild type and variants (MBP-PPO fusion)). Conditions: PPO enzyme activity of CyPPO10 protein, wild type = 100.
Format: biochemical, Thermosynechococcus elongatus BP-1
Description: The enzyme activities of PPO protein and PPO protein variants were examined, and inhibition assay by PPO-inhibiting herbicides was conducted. It was confirmed that the PPO protein has low water-solubility, but in case of being expressed as a fusion protein with MBP (maltose binding protein) (MBP-PPO), the PPO protein is able to be stably expressed as water-soluble form. Therefore, the wild type and variant proteins which were expressed in the form of fusion protein with MBP were used in the present test (refer to FIG. 4).
In order to express wild type genes and mutant genes of CyPPO10 and CyPPO13 (refer to Example 1 and Example 4), those genes were introduced to pMAL-c2X vector (refer to FIG. 5) respectively, and then cloned to BL21 (DE3) E. coli (CodonPlus).
The enzyme activity of the purified wild type protein and variant proteins of CyPPO10 and CyPPO13 was measured by the following process.
At first, a substrate of PPO protein, Protoporphyrinogen IX was synthesized. This process was performed in the space where nitrogen gas is streamed. 6 mg of protoporphyrin IX was dissolved in 20% (v/v) EtOH 20 ml, and stirred under dark condition for 30 minutes. The obtained protoporphyrinogen IX solution was put into a 15 ml screw tube in an amount of 800 and flushed with nitrogen gas for 5 minutes. To this, 1 g of sodium amalgam was added and vigorous shaking was performed for 2 minutes. The lid was open to exhaust hydrogen gas in the tube. Thereafter, the lid was closed and incubated for 3 minutes. The […] was filtered using syringe and cellulose membrane filter. To 600 μl of the obtained […], 2M MOPS [3-(N-morpholino)propanesulfonic acid] was added in an amount of approximately 300 thereby adjusting pH to 8.0. To determine the enzyme activity of PPO protein, a reaction mixture was prepared with the following composition (based on 10 ml): 50 mM Tris-Cl (pH 8.0); 50 mM NaCl; 0.04% (v/v) Tween 20; 40 mM glucose (0.072 g); 5 units glucose oxidase (16.6 mg); and 10 units catalase (1 μl).
Two hundred microliters (200 μl) of reaction mixture containing a purified PPO protein were placed in 96 well plates, and preincubated for 30 min at room temperature to reduce the oxygen concentration by the reaction of glucose oxidase-catalase. The mineral oil was layered and then the reaction was initiated by adding the substrate, […], to a final concentration of 50 μM. The reaction proceeded at room temperature for 30 min and the fluorescence of protoporphyrin IX was measured using Microplate reader (Sense, Hidex) (excitation: 405 nm; emission: 633 nm). To calculate the PPO enzyme activity, protoporphyrinogen IX solution was kept open in the air to oxidize the solution (overnight). To this, 2.7N HCl was added, and the absorbance at 408 nm was measured. A standard curve was generated using standard protoporphyrin IX, and the PPO activity was measured by calibration of protoporphyrin IX using the standard curve of protoporphyrin IX.
The final concentration of each herbicide was as follows: […]

Q: For B1, which “Activity (%)” value is on record?
A: 5%

Q: With B2 as the molecule, how does the “Activity (%)” value read?
A: 51%

Q: B3 was tested. Which “Activity (%)” value did it give?
A: 85%

Q: Which “Activity (%)” value does the source give for B4 here?
A: 57%
